Laboratory results from paper PMC6697748, “Ca^2+-regulated Ca^2+ channels with an RCK gating ring control plant symbiotic associations” (Nature Communications, 2019).

Molecular target: the molecule itself
Experiment: crystal structure; Ca2+-bound state: protein purified with 1 mM CaCl2 in 50 mM Tris-HCl pH 8.0, 250 mM NaCl; crystals in 21% PEG 550 MME, 50 mM MgAc2, 100 mM Tris pH 8.2, 20 °C; space group I4, one subunit per asymmetric unit, tetramer by crystallographic fourfold; 1.6 Å

B1: LjCASTOR soluble domain (residues 312-853) (domain or fragment, Lotus japonicus, UniProt Q5H8A6 312-853, looked up)
chain: KGKSEVVEQNHTLILGWSDKLGSLLNQLAIANESLGGGTIAVMAERDKEDMELDIGKMEFDFKGTSVICRSGSPLILADLKKVSVSKARTIIVLAEDGNADQSDARALRTVLSLTGVKEGLRGHIVVEMSDLDNEVLVKLVGGDLVETVVAHDVIGRLMIQCARQPGLAQIWEDILGFENCEFYIKRWPQLDGMLFEDVLISFPAAIPCGIKVASYGGKIILNPDDSYVLQEGDEVLVIAEDDDTYAPAPLPMVRRGSLPKDFVYPKSPERILFCGWRRDMEDMITVLDASLAPDSELWMFNDVPEKEREKKLIDGGLDISRLENISLVNREGNAVIRRHLESLPLESFDSILILADESVEDSAIQADSRSLATLLLIRDIQARRLPYVAMASQTQGGNFSKGSWIGEMKQASDKTVIISEILDPRTKNLLSMSKISDYVLSNELVSMALAMVAEDRQINDVLEELFAEEGNEMHIRQADIYLREGEEMSFYEIMLRARQRREILIGYRLANAERAVINPPAKTGRRKWSLKDVFVVITEKE
notes: CASTOR ion channel from Lotus japonicus, soluble domain after the transmembrane region, residues 312-853; two tandem RCK domains (RCK1 320-552, linker 553-580, RCK2 581-853); Cloned into pQE60 with a C-terminal hexahistidine tag; no removal of the tag is described; A selenomethionine-substituted form was used for phasing only; Residues 699-726 have no electron density; also called LjCASTOR RCK …
- stoichiometry N: 4
